First the molecules themselves.
B1: minF1; a variant is named by its letters at N, in order (parent)
chain: GAGACCGCAACTGAAAAGTTGTTNNNNAANNNNNGGNTNAATTTCTGCACGTAGAAGCAAAAGGC

The variants in this series derive from B1. As to the kind of experiment: fraction ligated after 30 min (ligated reads / total reads); higher = more ligase activity. Conditions: with F1*subA RNA substrate (template-directed ligation), 42 °C. The essentials: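 Ligated and unligated RNAs from a pool of minimized ligase ribozyme variants were separated on gels, reverse transcribed with barcoded primers and sequenced on a MiSeq. Core bases needed quality ≥30 to pass the filter. Each variant's fraction ligated was then taken as ligated reads over total reads.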
Regarding GAGACCGCAACTGAAAAGTTGTTATAGAAATGATGGTTGAATTTCTGCACGTAGAAGCAAAAGGC [ATAGATGATTG], the fraction ligated was 0.00301.

For GAGACCGCAACTGAAAAGTTGTTATAAAATGGATGGGTTGATTTCTGCACGTAGAAGCAAAAGGC [ATAATGGATGT A40G], the fraction ligated was 0.0127.

As to GAGACCGCAACTGAAAAGTTGTTTCGAAATGGATGGGTTGATTTCTGCACGTAGAAGCAAAAGGC [TCGATGGATGT A40G], the fraction ligated stood at 0.0635.

As to GAGACCGCAACTGAAAAGTTGTTTCAGAATGATGGGTTGAATTTCTGCACGTAGAAGCAAAAGGC [TCAGTGATGTG], the fraction ligated came out at 0.00229.

For the variant GAGACCGCAACTGAAAAGTTGTTATAGAAATGATGGGTTGATTTCTGCACGTAGAAGCAAAAGGC [ATAGATGATGT A40G], the fraction ligated was 0.00341.

Regarding GAGACCGCAACTGAAAAGTTGTTATAGAAAGGTGGGTTGAATTTCTGCACGTAGAAGCAAAAGGC [ATAGAGGTGTG], the fraction ligated amounted to 0.00246.

Turning to GAGACCGCAACTGAAAAGTTGTTATAGAAAGATGGGTTGAATTTCTGCACGTAGAAGCAAAAGGC [ATAGAGATGTG], the fraction ligated turned out to be 0.00202.

For the variant GAGACCGCAACTGAAAAGTTGTTACAGAATGATGGGTTGAATTTCTGCACGTAGAAGCAAAAGGC [ACAGTGATGTG], the fraction ligated was 0.00182.

As for GAGACCGCAACTGAAAAGTTGTTTCAGAATGGATGGGTTAATTTCTGCACGTAGAAGCAAAAGGC [TCAGTGGATGT], the fraction ligated was determined as 0.00577.

With GAGACCGCAACTGAAAAGTTGTATCAGAATGGATGGGTTGATTTCTGCACGTAGAAGCAAAAGGC [TCAGTGGATGT T23A A40G], the fraction ligated came to 0.0264.

For the variant GAGACCGCAACTGAAAAGTTGTACGAAATGGATGGGTTGAATTTCTGCACGTAGAAGCAAAAGGC [CGAAGGATGTG T23A A29T], the fraction ligated was 0.00782.

Turning to GAGACCGCAACTGAAAAGTTGTATCAGAATGGAGGGTTGAATTTCTGCACGTAGAAGCAAAAGGC [TCAGTGGAGTG T23A], the fraction ligated came to 0.00419.

Consider GAGACCGCAACTGAAAAGTTGTTATAGAAAGGATGGGTTAATTTCTGCACGTAGAAGCAAAAGGC [ATAGAGGATGT], for which the fraction ligated is 0.00209.

On to GAGACCGCAACTGAAAAGTTGTATCAGAAATGGTGGTTGAATTTCTGCACGTAGAAGCAAAAGGC [TCAGATGGTTG T23A], for which the fraction ligated worked out at 0.00182.

Consider GAGACCGCAACTGAAAAGTTGTTACAGAAGGATGGGTTGAATTTCTGCACGTAGAAGCAAAAGGC [ACAGGGATGTG], for which the fraction ligated was 0.00108.

As to GAGACCGCAACTGAAAAGTTGTTTCGAAATGATGGGTTGAATTTCTGCACGTAGAAGCAAAAGGC [TCGATGATGTG], the fraction ligated was determined as 0.00384.

GAGACCGCAACTGAAAAGTTGTTACAGAATGGAGGGTTGAATTTCTGCACGTAGAAGCAAAAGGC [ACAGTGGAGTG]: the fraction ligated was 0.00292.

Take GAGACCGCAACTGAAAAGTTGTATGAAATGGATGGGTTGAATTTCTGCACGTAGAAGCAAAAGGC [TGAAGGATGTG T23A A29T]: the fraction ligated stood at 0.00369.

As to GAGACCGCAACTGAAAAGTTGTATCGAATGGATGGGTTGAATTTCTGCACGTAGAAGCAAAAGGC [TCGAGGATGTG T23A A29T], the fraction ligated turned out to be 0.013.

Regarding GAGACCGCAACTGAAAAGTTGTTACGAAATGATGGGTTGAATTTCTGCACGTAGAAGCAAAAGGC [ACGATGATGTG], the fraction ligated was found to be 0.00228.

As for GAGACCGCAACTGAAAAGTTGTTATAGAAAGGAGGGTTGAATTTCTGCACGTAGAAGCAAAAGGC [ATAGAGGAGTG], the fraction ligated turned out to be 0.00165.

On to GAGACCGCAACTGAAAAGTTGTATCAGAAATGGTGGGTTGATTTCTGCACGTAGAAGCAAAAGGC [TCAGATGGTGT T23A A40G], for which the fraction ligated amounted to 0.00684.

In the case of GAGACCGCAACTGAAAAGTTGTTACAGAAATGTGGGTTGAATTTCTGCACGTAGAAGCAAAAGGC [ACAGATGTGTG], the fraction ligated turned out to be 0.00297.

GAGACCGCAACTGAAAAGTTGTTACGAAATGGATGGTTGAATTTCTGCACGTAGAAGCAAAAGGC [ACGATGGATTG]: the fraction ligated was 0.0663.

With GAGACCGCAACTGAAAAGTTGTTACAGAATGGATGGTTGAATTTCTGCACGTAGAAGCAAAAGGC [ACAGTGGATTG], the fraction ligated worked out at 0.013.

As to GAGACCGCAACTGAAAAGTTGTTACAGAAATGGTGGTTGAATTTCTGCACGTAGAAGCAAAAGGC [ACAGATGGTTG], the fraction ligated came out at 0.00164.

For GAGACCGCAACTGAAAAGTTGTTTCAGAAATGTGGGTTGAATTTCTGCACGTAGAAGCAAAAGGC [TCAGATGTGTG], the fraction ligated was found to be 0.00186.

Consider GAGACCGCAACTGAAAAGTTGTATCAGAAATGGTGGGTTAATTTCTGCACGTAGAAGCAAAAGGC [TCAGATGGTGT T23A], for which the fraction ligated was determined as 0.00338.

As for GAGACCGCAACTGAAAAGTTGTTATAAAATGGTGGGTTGAATTTCTGCACGTAGAAGCAAAAGGC [ATAATGGTGTG], the fraction ligated is 0.00284.

On to GAGACCGCAACTGAAAAGTTGTTTCAGAAATGGTGGTTGAATTTCTGCACGTAGAAGCAAAAGGC [TCAGATGGTTG], for which the fraction ligated amounted to 0.00217.

For the variant GAGACCGCAACTGAAAAGTTGTATCAGAATGGATGGGTTAATTTCTGCACGTAGAAGCAAAAGGC [TCAGTGGATGT T23A], the fraction ligated came to 0.00804.

GAGACCGCAACTGAAAAGTTGTTATAGAAAGGATGGGTTGATTTCTGCACGTAGAAGCAAAAGGC [ATAGAGGATGT A40G]: the fraction ligated was 0.00594.

Take GAGACCGCAACTGAAAAGTTGTTTCGAAATGGATGGGTTAATTTCTGCACGTAGAAGCAAAAGGC [TCGATGGATGT]: the fraction ligated was determined as 0.0171.

For GAGACCGCAACTGAAAAGTTGTATCAGAATGGATGGTTGAATTTCTGCACGTAGAAGCAAAAGGC [TCAGTGGATTG T23A], the fraction ligated was determined as 0.0201.

Regarding GAGACCGCAACTGAAAAGTTGTTACGAATGGATGGGTTGAATTTCTGCACGTAGAAGCAAAAGGC [ACGAGGATGTG A29T], the fraction ligated amounted to 0.0139.

On to GAGACCGCAACTGAAAAGTTGTTATAAAATGGATGGTTGAATTTCTGCACGTAGAAGCAAAAGGC [ATAATGGATTG], for which the fraction ligated turned out to be 0.00677.

As for GAGACCGCAACTGAAAAGTTGTATCGAAATGGAGGGTTGAATTTCTGCACGTAGAAGCAAAAGGC [TCGATGGAGTG T23A], the fraction ligated came out at 0.00843.

As for GAGACCGCAACTGAAAAGTTGTATCAGAAATGTGGGTTGAATTTCTGCACGTAGAAGCAAAAGGC [TCAGATGTGTG T23A], the fraction ligated came to 0.00194.

As for GAGACCGCAACTGAAAAGTTGTTATAAAAGGATGGGTTGAATTTCTGCACGTAGAAGCAAAAGGC [ATAAGGATGTG], the fraction ligated is 0.00241.

For GAGACCGCAACTGAAAAGTTGTTTCAGAAGGATGGGTTGAATTTCTGCACGTAGAAGCAAAAGGC [TCAGGGATGTG], the fraction ligated was 0.00365.

Turning to GAGACCGCAACTGAAAAGTTGTTAGAAATGGATGGGTTGAATTTCTGCACGTAGAAGCAAAAGGC [AGAAGGATGTG A29T], the fraction ligated was 0.00349.

For GAGACCGCAACTGAAAAGTTGTTACAGAATGGTGGGTTGAATTTCTGCACGTAGAAGCAAAAGGC [ACAGTGGTGTG], the fraction ligated is 0.00205.

The values are drawn from the supplement of paper PMC6755084.
